T1: full length cyno SIRPα stably expressed on CHOK1 cells (cynomolgus monkey, UniProt A0A2K5VYQ9 31-507)
T1 construct: whole, on cells; also called CHOK1-cyno SIRPα-2A2 cells; CHOK1-cyno SIRPα
T1 sequence: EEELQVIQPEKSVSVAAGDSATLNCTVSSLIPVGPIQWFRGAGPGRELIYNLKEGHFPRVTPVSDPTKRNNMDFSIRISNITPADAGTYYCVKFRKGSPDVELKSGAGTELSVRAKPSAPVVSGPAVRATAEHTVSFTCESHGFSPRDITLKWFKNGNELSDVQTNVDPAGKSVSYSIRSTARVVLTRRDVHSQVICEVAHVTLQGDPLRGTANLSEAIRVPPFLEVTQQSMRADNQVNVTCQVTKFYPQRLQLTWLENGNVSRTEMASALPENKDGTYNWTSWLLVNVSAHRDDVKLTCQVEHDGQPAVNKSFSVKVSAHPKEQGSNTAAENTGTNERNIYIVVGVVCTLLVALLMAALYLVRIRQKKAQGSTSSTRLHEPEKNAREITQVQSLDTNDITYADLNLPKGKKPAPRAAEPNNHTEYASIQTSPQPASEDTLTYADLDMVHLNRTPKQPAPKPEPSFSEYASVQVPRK

T2: full length C57BL/6 mouse SIRPα stably expressed on CHOK1 cells (mouse (C57BL/6), UniProt P97797 32-513)
T2 construct: whole, on cells; also called CHOK1-C57BL/6 mouse SIRPα-2.22 cells
T2 sequence (looked up): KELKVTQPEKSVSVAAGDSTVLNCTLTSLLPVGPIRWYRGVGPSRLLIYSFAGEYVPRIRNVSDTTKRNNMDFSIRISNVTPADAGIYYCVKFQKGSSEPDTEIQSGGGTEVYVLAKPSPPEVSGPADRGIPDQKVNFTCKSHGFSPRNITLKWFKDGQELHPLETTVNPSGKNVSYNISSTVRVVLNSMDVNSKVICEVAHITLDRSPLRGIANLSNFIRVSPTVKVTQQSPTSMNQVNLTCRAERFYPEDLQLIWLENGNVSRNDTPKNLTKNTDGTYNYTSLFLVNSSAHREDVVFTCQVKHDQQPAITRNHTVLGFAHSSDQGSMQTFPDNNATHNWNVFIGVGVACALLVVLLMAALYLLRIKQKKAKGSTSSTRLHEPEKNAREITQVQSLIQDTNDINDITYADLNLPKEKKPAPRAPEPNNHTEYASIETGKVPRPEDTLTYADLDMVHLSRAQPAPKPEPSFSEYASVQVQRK


Assays:
[1] = biological target: T3, biotin labeled soluble human SIRPα v1 ECD recombinant protein (human, UniProt P78324 31-373, biotin labeled); experiment: competitive ELISA; competitor KWAR23
T3 construct: extracellular domain
T3 sequence (P78324 31-373): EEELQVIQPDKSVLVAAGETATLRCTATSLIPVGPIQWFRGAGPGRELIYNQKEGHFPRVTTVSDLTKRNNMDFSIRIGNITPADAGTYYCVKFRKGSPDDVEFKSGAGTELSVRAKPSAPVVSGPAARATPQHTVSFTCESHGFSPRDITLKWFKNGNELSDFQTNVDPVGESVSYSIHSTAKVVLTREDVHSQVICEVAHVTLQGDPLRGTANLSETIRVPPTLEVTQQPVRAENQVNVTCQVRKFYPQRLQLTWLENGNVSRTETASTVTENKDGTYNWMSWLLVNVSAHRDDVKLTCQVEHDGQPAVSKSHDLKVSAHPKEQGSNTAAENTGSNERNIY
Description: (§1) Competitive ELISA assay was used for epitope binning of 9 functional antibodies. Briefly excessive competitor antibody and biotin labeled soluble human SIRPα v1 ECD recombinant protein were co-incubated with ELISA microplate coated antibody. After washing, HRP-SA was added and incubated at 37° C. for 1 hour. Then, […] of TMB solution (Biotechnology) was added. After incubation for 15 minutes at room temperature, the reaction was stopped by the addition of […] of 1N HCl. OD 450 nm was read. Competition ratio was calculated. The antibodies that can compete each other for binding to SIRPα have the similar binding epitope.

[2] = biological target: T1, full length cyno SIRPα stably expressed …; experiment: FACS on CHOK1 cells
[3] = biological target: T2, full length C57BL/6 mouse SIRPα stably …; experiment: FACS on CHOK1 cells
[4] = biological target: T4, Fc tagged human SIRPα v1 ECD recombinant protein (human, UniProt P78324 31-370); experiment: ELISA
T4 construct: range 1-370; cloned range M1-R370 includes the signal peptide; also called hSIRPα V1; not shown: human IgG Fc region (hFc) of the pCPC vector
T4 sequence (P78324 31-370 limits assumed): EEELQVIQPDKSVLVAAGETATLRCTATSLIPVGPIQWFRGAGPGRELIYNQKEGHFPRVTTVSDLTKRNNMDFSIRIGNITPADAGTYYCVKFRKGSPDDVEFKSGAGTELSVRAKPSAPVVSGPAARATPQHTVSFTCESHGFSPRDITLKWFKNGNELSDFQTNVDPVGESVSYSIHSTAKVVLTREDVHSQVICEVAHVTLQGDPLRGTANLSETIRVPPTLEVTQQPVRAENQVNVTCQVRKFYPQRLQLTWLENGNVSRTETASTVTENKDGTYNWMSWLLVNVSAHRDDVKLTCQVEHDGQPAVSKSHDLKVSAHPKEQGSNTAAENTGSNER
Description: (§2) Binding specificity of the purified hybridoma antibodies against SIRP family members was detected by ELISA assay using recombinant proteins of Fc tagged human SIRPα v1 ECD, human SIRPα v2 ECD, human SIRPβ ECD and human SIRPγ ECD. Briefly the antibodies were incubated with ELISA microplate coated antigens at 37° C. for 1 hour. After washing, horseradish peroxidase (HRP) labeled anti-mouse or anti-human IgG 2nd Ab (Sigma) was added and incubated at 37° C. for 1 hour. Then, 100 μl/well of TMB solution (Biotechnology) was added. After incubation for 15 minutes at room temperature, the reaction was stopped by the addition of 50 μl of 1N HCl. OD 450 nm was read and EC₅₀ was calculated. Other than 060 and HEFLB, all of the antibodies as tested can bind with both human SIRPα v1 and SIRPα v2. 060 and HEFLB can bind with human SIRPα v1 but not v2. Other than 055, all of the antibodies as tested can bind with human SIRPβ. In comparison with other known anti-SIRPα antibodies, only 022, 035 and 050 can bind with human SIRPγ weakly.

[5] = biological target: T5, Fc tagged human SIRPβ ECD recombinant protein (human, UniProt O00241 30-371); experiment: ELISA
T5 construct: range 1-371; cloned range includes the signal peptide; also called hSIRPβ; not shown: human IgG Fc region (hFc) of the pCPC vector
T5 sequence (O00241 30-371 limits assumed, form in doubt): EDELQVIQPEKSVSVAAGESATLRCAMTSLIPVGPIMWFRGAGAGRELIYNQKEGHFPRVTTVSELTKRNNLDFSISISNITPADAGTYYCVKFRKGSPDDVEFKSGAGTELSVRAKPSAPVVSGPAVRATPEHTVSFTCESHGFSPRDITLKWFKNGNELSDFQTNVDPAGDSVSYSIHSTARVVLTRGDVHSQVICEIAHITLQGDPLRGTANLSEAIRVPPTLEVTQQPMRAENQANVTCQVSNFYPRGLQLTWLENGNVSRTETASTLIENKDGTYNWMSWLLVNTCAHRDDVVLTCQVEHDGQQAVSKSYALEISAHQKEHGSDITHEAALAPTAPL
Description: as §2

[6] = biological target: T6, Fc tagged human SIRPα v2 ECD recombinant protein (human); experiment: ELISA
T6 construct: range 1-369; cloned range M1-R369 includes the signal peptide; also called hSIRPα V2
Description: as §2

[7] = biological target: T3, biotin labeled soluble human SIRPα v1 …; experiment: competitive ELISA; competitor 001
Description: as §1

[8] = biological target: T3, biotin labeled soluble human SIRPα v1 …; experiment: competitive ELISA; competitor 060
Description: as §1

[9] = biological target: T3, biotin labeled soluble human SIRPα v1 …; experiment: competitive ELISA; competitor 032
Description: as §1

| % Competition [1] | MFI at 10 nM [2] | binding result [3] | EC50 [4] | EC50 [5] | EC50 [6] | % Competition [7] | % Competition [8] | % Competition [9] | Binder |
| --- | --- | --- | --- | --- | --- | --- | --- | --- | --- |
| 0% | 13600 MFI | no binding (tested: 100 nM) | 0.08 nM | 0.11 nM | 0.08 nM | 2% | 17% | 8% | Antibody 050 (hybridoma antibody) (antibody, V domains shown, mouse hybridoma antibody) VH: QIQLVQSGPELKKPGETVKISCKASGYTFTHYSMHWVKQAPGKGLKWMGWINTETAEPTYVDDFKGRFAFSLEASASTAFFQINNLKNEDTATYFCARGGLRQGDYWGQGTTLTVSS VL: QIVLTQSPPIMSASPGEKVTLTCSATSSVSASYLYWFQQKPGSSPKLWIYSTSNLASGVPARFSGSGSGTSYSLTISNMEPADAASYFCHQWSSYPYTFGGGTKLEIK |
| -14% | 14300 MFI | no binding (tested: 100 nM) | 0.02 nM | 0.02 nM | 0.02 nM | 33% | -1% | 34% | Antibody 074 (hybridoma antibody) (antibody, V domains shown, mouse hybridoma antibody) VH: QVQLQQPRAELVKPGASVMLSCKASGYTFSSYWIHWVRQGPGQGLEWIGLIHPNSGNTDCSETFKNKATLTVDTSSSTAYMQLSSLASEDSAVYYCARDGASYDWFVHWGQGTLVTVSA VL: not shown |
| 1% | 6430 MFI | no binding (tested: 100 nM) | 0.04 nM | 0.03 nM | 0.04 nM | 2% | 26% | 4% | Antibody 022 (hybridoma antibody) (antibody, V domains shown, mouse hybridoma antibody) VH: QIQLVQSGPELKKPGETVKISCKASGYTFTDYAMHWVKQAPGKGLKWMGWKNTETGESTYAEDFKGRFAFFLETSASTAYLQINNVKNEDTATYFCARGGYGSNYVMDYWGQGTSVIVSS VL: DIQMTQSSSSFSVSLGDRVTITCKASEDIYNRLAWYQQKPGNAPRLLISGATSLETGVPSRFSGSGSGKDYTLSITSLQTEDVATYYCQQYWNSPRTFGGGTKLEIK |
